In CN108623681A (ZHUHAI TAINUO MAIBO BIOTECHNOLOGY CO LTD; GUANGZHOU …, dated 2018):

Target: 破伤风毒素 (Clostridium tetani, UniProt P04958 2-1315)
Sequence (P04958 2-457 limits assumed, chain 1 of 2): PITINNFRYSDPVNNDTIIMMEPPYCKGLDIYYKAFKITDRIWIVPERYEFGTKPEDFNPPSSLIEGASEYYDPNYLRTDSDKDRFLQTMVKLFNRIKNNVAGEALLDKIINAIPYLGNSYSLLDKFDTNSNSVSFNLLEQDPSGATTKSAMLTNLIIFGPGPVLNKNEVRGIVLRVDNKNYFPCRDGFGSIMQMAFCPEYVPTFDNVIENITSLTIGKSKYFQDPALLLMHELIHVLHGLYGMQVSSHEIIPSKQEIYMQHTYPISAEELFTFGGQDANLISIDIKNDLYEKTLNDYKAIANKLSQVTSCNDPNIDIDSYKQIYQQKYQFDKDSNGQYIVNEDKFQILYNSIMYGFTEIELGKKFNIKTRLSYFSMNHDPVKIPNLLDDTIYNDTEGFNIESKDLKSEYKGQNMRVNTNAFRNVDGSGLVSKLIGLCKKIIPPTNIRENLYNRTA
Sequence (P04958 458-1315 limits assumed, chain 2 of 2): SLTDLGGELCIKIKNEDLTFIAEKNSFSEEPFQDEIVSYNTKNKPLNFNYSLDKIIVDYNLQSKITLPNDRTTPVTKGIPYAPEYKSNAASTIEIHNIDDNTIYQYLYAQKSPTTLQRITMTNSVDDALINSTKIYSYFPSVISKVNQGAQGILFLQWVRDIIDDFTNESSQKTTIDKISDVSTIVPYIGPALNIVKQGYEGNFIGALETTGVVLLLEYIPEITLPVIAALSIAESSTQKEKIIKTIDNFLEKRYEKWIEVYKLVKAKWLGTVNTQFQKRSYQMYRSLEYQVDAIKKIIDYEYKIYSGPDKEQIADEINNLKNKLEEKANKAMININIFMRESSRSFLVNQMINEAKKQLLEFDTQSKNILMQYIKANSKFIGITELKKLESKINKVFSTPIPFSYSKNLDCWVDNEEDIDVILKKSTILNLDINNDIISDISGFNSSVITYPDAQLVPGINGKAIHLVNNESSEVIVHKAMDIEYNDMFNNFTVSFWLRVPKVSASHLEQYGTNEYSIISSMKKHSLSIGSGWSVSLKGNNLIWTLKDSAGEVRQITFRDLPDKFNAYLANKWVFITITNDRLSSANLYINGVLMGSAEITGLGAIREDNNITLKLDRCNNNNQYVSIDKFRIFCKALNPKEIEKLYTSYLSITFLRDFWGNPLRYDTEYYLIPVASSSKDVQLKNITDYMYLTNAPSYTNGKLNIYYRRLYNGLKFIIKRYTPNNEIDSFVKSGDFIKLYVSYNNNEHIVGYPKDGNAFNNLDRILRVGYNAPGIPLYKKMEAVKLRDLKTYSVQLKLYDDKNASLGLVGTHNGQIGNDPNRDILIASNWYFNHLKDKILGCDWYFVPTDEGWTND

B1: 抗体TRN1015 (antibody, V domains shown)
VH: EVQLVESGGGRVKPGGSLRLSCSVSGFGIGIYTMNWVRQAPGKGLEWVSSISGTSQYIYYANSVRGRFTISRDNAENSLYLQLNNLRAEDTALYYCVSGSSLDYWGQGTLVTISS
VL: DIQLTQSPSSLSASVGGRVTITCRASQNIGTNLNWFQQKPGTAPNLLIYGASTLQSGVPSRFSGSGSGTTFTLTIDSLQPEDFATYYCYQNYNSPKTFGQGTKVDLK
koff: 9.4e-05 s⁻¹
kon: 38800 M⁻¹ s⁻¹
